Experimental data as given in patent publication US20250197514A1 (INTERVET, published 2025).

T1: canine FcRn heterodimer (FCGRT large subunit p51 + beta-2-microglobulin), biotin-labeled (Canis lupus familiaris; Canis familiaris, biotin-labeled (site not stated; the chain carries an AviTag))
T1 construct: also called FcRn/B2M; FcRn/β2M; not shown: AviTag, named only
T1 chain (part 1 of 2): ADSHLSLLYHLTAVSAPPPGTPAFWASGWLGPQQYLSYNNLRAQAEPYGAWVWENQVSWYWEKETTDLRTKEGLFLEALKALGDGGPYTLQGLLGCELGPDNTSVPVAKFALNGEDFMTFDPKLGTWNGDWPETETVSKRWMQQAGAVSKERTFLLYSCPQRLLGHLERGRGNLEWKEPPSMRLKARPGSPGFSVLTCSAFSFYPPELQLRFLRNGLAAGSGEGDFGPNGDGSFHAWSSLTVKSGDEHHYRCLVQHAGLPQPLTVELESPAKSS
T1 chain (part 2 of 2): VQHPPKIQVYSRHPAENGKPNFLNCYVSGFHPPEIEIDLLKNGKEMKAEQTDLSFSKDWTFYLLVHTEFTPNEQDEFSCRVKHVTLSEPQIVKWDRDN


What was measured:
[1] = biological target: T1, canine FcRn heterodimer (FCGRT large …); assay: BLI (Octet HTX), biotinylated FcRn/B2M on streptavidin biosensors, analyte 500-7.8 nM, pH 7.4, 1:1 fit
Experimental: (§1) The binding of antibodies and IgG Fc fusion proteins to FcRn proteins was determined by Octet™ HTX using Streptavidin (SA) biosensors. First, biotin-labeled […] was loaded onto pre-hydrated SA biosensors for 60 s at a concentration of 10 μg/mL. Second, the biosensors were placed into pH 6.0 TBS/Casein buffer for the blocking phase for 180 s. Third, for the association phase, FcRn/B2M loaded biosensors were placed into 2-fold serial dilutions from 500 nM down to 7.8 nM of antibody or IgG Fc fusion protein in pH 6.0 or 7.4 TBS/Casein buffer for 15 s. Finally, the biosensors were placed into either pH 6.0 or pH 7.4 TBS/Casein buffer for the dissociation phase for 60 s. Analysis was performed using Octet Data Analysis 12.0 software and curves were fitted using a 1:1 binding model.

[2] = biological target: T1, canine FcRn heterodimer (FCGRT large …); assay: BLI (Octet HTX), biotinylated FcRn/B2M on streptavidin biosensors, analyte 500-7.8 nM, pH 6.0, 1:1 fit
Experimental: as §1

Kd [1] [nM] | Kd [2] [nM] | Binder
226 | 2.27 | cIL-13Rα2-cIgGB-Fc-LF (Fc fusion, also called cIL-13Ra2-cIgGB-Fc-LF; H433L/N434F) SMLSNAEIKVNPPQDFEIVDPGYLGYLSLQWQPPLFPDNFKECTIEYELKYRNIDSENWKTIITKNLHYKDGFDLNKGIEAKINTLLPAQCTNGSEVRSSWAETTYWTSPQGNRETKIQDMDCVYYNWQYLVCSWKPGMGVHFDTNYQLFYWYEGLDHSAECTDYIKVNGKNMGCRFPYLESSDYKDFYICVNGSSESQPIRPSYFIFQLQNIVKPMPPDYLSLTVKNSEEINLKWNMPKGPIPAKCFIYEIEFTEDGTTWVTTTVENEIQITRTSNESQKLCFLVRSKVNIYCSDDGIWSEWSDEQCWKGDIWKETPKRENGRVPRPPDCPKCPAPEMLGGPSVFIFPPKPKDTLLIARTPEVTCVVVDLDPEDPEVQISWFVDGKQMQTAKTQPREEQFNGTYRVVSVLPIGHQDWLKGKQFTCKVNNKALPSPIERTISKARGQAHQPSVYVLPPSREELSKNTVSLTCLIKDFFPPDIDVEWQSNGQQEPESKYRTTPPQLDEDGSYFLYSKLSVDKSRWQRGDTFICAVMHEALLFHYTQESLSHSPGK
6120 | 5.95 | cIL-13Rα2-cIgGB-Fc-T (Fc fusion, also called cIL-13Ra2-cIgGB-Fc-T; Y436T) SMLSNAEIKVNPPQDFEIVDPGYLGYLSLQWQPPLFPDNFKECTIEYELKYRNIDSENWKTIITKNLHYKDGFDLNKGIEAKINTLLPAQCTNGSEVRSSWAETTYWTSPQGNRETKIQDMDCVYYNWQYLVCSWKPGMGVHFDTNYQLFYWYEGLDHSAECTDYIKVNGKNMGCRFPYLESSDYKDFYICVNGSSESQPIRPSYFIFQLQNIVKPMPPDYLSLTVKNSEEINLKWNMPKGPIPAKCFIYEIEFTEDGTTWVTTTVENEIQITRTSNESQKLCFLVRSKVNIYCSDDGIWSEWSDEQCWKGDIWKETPKRENGRVPRPPDCPKCPAPEMLGGPSVFIFPPKPKDTLLIARTPEVTCVVVDLDPEDPEVQISWFVDGKQMQTAKTQPREEQFNGTYRVVSVLPIGHQDWLKGKQFTCKVNNKALPSPIERTISKARGQAHQPSVYVLPPSREELSKNTVSLTCLIKDFFPPDIDVEWQSNGQQEPESKYRTTPPQLDEDGSYFLYSKLSVDKSRWQRGDTFICAVMHEALHNHTTQESLSHSPGK
905 | 2.87 | cIL-13Rα2-cIgGB-Fc-LFT (Fc fusion, also called cIL-13Ra2-cIgGB-Fc-LFT; H433L/N434F/Y436T) SMLSNAEIKVNPPQDFEIVDPGYLGYLSLQWQPPLFPDNFKECTIEYELKYRNIDSENWKTIITKNLHYKDGFDLNKGIEAKINTLLPAQCTNGSEVRSSWAETTYWTSPQGNRETKIQDMDCVYYNWQYLVCSWKPGMGVHFDTNYQLFYWYEGLDHSAECTDYIKVNGKNMGCRFPYLESSDYKDFYICVNGSSESQPIRPSYFIFQLQNIVKPMPPDYLSLTVKNSEEINLKWNMPKGPIPAKCFIYEIEFTEDGTTWVTTTVENEIQITRTSNESQKLCFLVRSKVNIYCSDDGIWSEWSDEQCWKGDIWKETPKRENGRVPRPPDCPKCPAPEMLGGPSVFIFPPKPKDTLLIARTPEVTCVVVDLDPEDPEVQISWFVDGKQMQTAKTQPREEQFNGTYRVVSVLPIGHQDWLKGKQFTCKVNNKALPSPIERTISKARGQAHQPSVYVLPPSREELSKNTVSLTCLIKDFFPPDIDVEWQSNGQQEPESKYRTTPPQLDEDGSYFLYSKLSVDKSRWQRGDTFICAVMHEALLFHTTQESLSHSPGK
298 | 2.35 | cIL-13Rα2-cIgGB-Fc-LY (Fc fusion, also called cIL-13Ra2-cIgGB-Fc-LY; H433L/N434Y) SMLSNAEIKVNPPQDFEIVDPGYLGYLSLQWQPPLFPDNFKECTIEYELKYRNIDSENWKTIITKNLHYKDGFDLNKGIEAKINTLLPAQCTNGSEVRSSWAETTYWTSPQGNRETKIQDMDCVYYNWQYLVCSWKPGMGVHFDTNYQLFYWYEGLDHSAECTDYIKVNGKNMGCRFPYLESSDYKDFYICVNGSSESQPIRPSYFIFQLQNIVKPMPPDYLSLTVKNSEEINLKWNMPKGPIPAKCFIYEIEFTEDGTTWVTTTVENEIQITRTSNESQKLCFLVRSKVNIYCSDDGIWSEWSDEQCWKGDIWKETPKRENGRVPRPPDCPKCPAPEMLGGPSVFIFPPKPKDTLLIARTPEVTCVVVDLDPEDPEVQISWFVDGKQMQTAKTQPREEQFNGTYRVVSVLPIGHQDWLKGKQFTCKVNNKALPSPIERTISKARGQAHQPSVYVLPPSREELSKNTVSLTCLIKDFFPPDIDVEWQSNGQQEPESKYRTTPPQLDEDGSYFLYSKLSVDKSRWQRGDTFICAVMHEALLYHYTQESLSHSPGK
187 | 0.11 | cIL-13Rα2-cIgGB-Fc-Y (Fc fusion, Made in ExpiCHO, Protein A purified; also called cIL-13Ra2-cIgGB-Fc-Y; N434Y) SMLSNAEIKVNPPQDFEIVDPGYLGYLSLQWQPPLFPDNFKECTIEYELKYRNIDSENWKTIITKNLHYKDGFDLNKGIEAKINTLLPAQCTNGSEVRSSWAETTYWTSPQGNRETKIQDMDCVYYNWQYLVCSWKPGMGVHFDTNYQLFYWYEGLDHSAECTDYIKVNGKNMGCRFPYLESSDYKDFYICVNGSSESQPIRPSYFIFQLQNIVKPMPPDYLSLTVKNSEEINLKWNMPKGPIPAKCFIYEIEFTEDGTTWVTTTVENEIQITRTSNESQKLCFLVRSKVNIYCSDDGIWSEWSDEQCWKGDIWKETPKRENGRVPRPPDCPKCPAPEMLGGPSVFIFPPKPKDTLLIARTPEVTCVVVDLDPEDPEVQISWFVDGKQMQTAKTQPREEQFNGTYRVVSVLPIGHQDWLKGKQFTCKVNNKALPSPIERTISKARGQAHQPSVYVLPPSREELSKNTVSLTCLIKDFFPPDIDVEWQSNGQQEPESKYRTTPPQLDEDGSYFLYSKLSVDKSRWQRGDTFICAVMHEALHYHYTQESLSHSPGK
127 | 3.32 | cIL-13Rα2-cIgGB-Fc-LYT (Fc fusion, also called cIL-13Ra2-cIgGB-Fc-LYT; H433L/N434Y/Y436T) SMLSNAEIKVNPPQDFEIVDPGYLGYLSLQWQPPLFPDNFKECTIEYELKYRNIDSENWKTIITKNLHYKDGFDLNKGIEAKINTLLPAQCTNGSEVRSSWAETTYWTSPQGNRETKIQDMDCVYYNWQYLVCSWKPGMGVHFDTNYQLFYWYEGLDHSAECTDYIKVNGKNMGCRFPYLESSDYKDFYICVNGSSESQPIRPSYFIFQLQNIVKPMPPDYLSLTVKNSEEINLKWNMPKGPIPAKCFIYEIEFTEDGTTWVTTTVENEIQITRTSNESQKLCFLVRSKVNIYCSDDGIWSEWSDEQCWKGDIWKETPKRENGRVPRPPDCPKCPAPEMLGGPSVFIFPPKPKDTLLIARTPEVTCVVVDLDPEDPEVQISWFVDGKQMQTAKTQPREEQFNGTYRVVSVLPIGHQDWLKGKQFTCKVNNKALPSPIERTISKARGQAHQPSVYVLPPSREELSKNTVSLTCLIKDFFPPDIDVEWQSNGQQEPESKYRTTPPQLDEDGSYFLYSKLSVDKSRWQRGDTFICAVMHEALLYHTTQESLSHSPGK
20.4 | 0.3 | cIL-13Rα2-cIgGB-Fc-PY (Fc fusion, also called cIL-13Ra2-cIgGB-Fc-PY; I308P/N434Y) SMLSNAEIKVNPPQDFEIVDPGYLGYLSLQWQPPLFPDNFKECTIEYELKYRNIDSENWKTIITKNLHYKDGFDLNKGIEAKINTLLPAQCTNGSEVRSSWAETTYWTSPQGNRETKIQDMDCVYYNWQYLVCSWKPGMGVHFDTNYQLFYWYEGLDHSAECTDYIKVNGKNMGCRFPYLESSDYKDFYICVNGSSESQPIRPSYFIFQLQNIVKPMPPDYLSLTVKNSEEINLKWNMPKGPIPAKCFIYEIEFTEDGTTWVTTTVENEIQITRTSNESQKLCFLVRSKVNIYCSDDGIWSEWSDEQCWKGDIWKETPKRENGRVPRPPDCPKCPAPEMLGGPSVFIFPPKPKDTLLIARTPEVTCVVVDLDPEDPEVQISWFVDGKQMQTAKTQPREEQFNGTYRVVSVLPPGHQDWLKGKQFTCKVNNKALPSPIERTISKARGQAHQPSVYVLPPSREELSKNTVSLTCLIKDFFPPDIDVEWQSNGQQEPESKYRTTPPQLDEDGSYFLYSKLSVDKSRWQRGDTFICAVMHEALHYHYTQESLSHSPGK
